US20190085043A1, “FUSION PROTEINS FOR TREATING A METABOLIC SYNDROME” (SANOFI, priority 2012, published 2019)

What was measured:
MAP kinase ERK1/2 = experiment: ERK1/2 phosphorylation In-Cell Western (pERK ICW) in CHO cells overexpressing human FGFR1c plus KLB; type: cell-based; details: ERK1/2 phosphorylation Thr202/Tyr204
Protocol: FIG. 1C-1 to FIG. 1C-3) Dose dependent in vitro activation of the downstream effector ERK. Activation of the downstream effector of FGF signaling, the MAP kinase ERK1/2, was determined via In-Cell Western assay in CHO cells stably overexpressing human FGFR1c and KLB using an antibody directed against the ERK1/2 phosphorylated amino acid residues threonine 202 and tyrosine 204.
(§1) CHO Flp-In cells (Invitrogen, Darmstadt, Germany) stable expressing the human FGFR1c together with human beta-Klotho (KLB) were used for FGF-21 receptor autophosphorylation assay using In-Cell Western. In order to determine the receptor autophosphorylation level, 2×10^4 cells/well were seeded into 96-well plates and grown for 48 h. Cells were serum starved with serum-free medium Ham's F-12 Nutrient Mix with GlutaMAX (Gibco, Darmstadt, Germany) for 3-4 h. […] Subsequently cells were washed again with PBS+0.1% Tween20 and infrared dye signals were quantified with an Odyssey imager (LICOR, Bad Homburg, Germany). Results were normalized by quantification of DNA with TO-PRO3 dye (Invitrogen, Karlsruhe, Germany). […]
To assess the activation of a downstream effector of FGFR signalling by FGF-21-GLP-1RA fusion proteins the phosphorylation of MAP kinases ERK1/2 were analysed. […]

human FGFR1c plus KLB = human FGFR1c plus KLB (Homo sapiens, UniProt P11362+Q86Z14); experiment: FGF-21 receptor autophosphorylation In-Cell Western (pFGFR ICW) in CHO cells; type: cell-based; details: CHO cells overexpressing human FGFR1c plus KLB, FGFR autophosphorylation
Chain of human FGFR1c plus KLB (P11362 22-822): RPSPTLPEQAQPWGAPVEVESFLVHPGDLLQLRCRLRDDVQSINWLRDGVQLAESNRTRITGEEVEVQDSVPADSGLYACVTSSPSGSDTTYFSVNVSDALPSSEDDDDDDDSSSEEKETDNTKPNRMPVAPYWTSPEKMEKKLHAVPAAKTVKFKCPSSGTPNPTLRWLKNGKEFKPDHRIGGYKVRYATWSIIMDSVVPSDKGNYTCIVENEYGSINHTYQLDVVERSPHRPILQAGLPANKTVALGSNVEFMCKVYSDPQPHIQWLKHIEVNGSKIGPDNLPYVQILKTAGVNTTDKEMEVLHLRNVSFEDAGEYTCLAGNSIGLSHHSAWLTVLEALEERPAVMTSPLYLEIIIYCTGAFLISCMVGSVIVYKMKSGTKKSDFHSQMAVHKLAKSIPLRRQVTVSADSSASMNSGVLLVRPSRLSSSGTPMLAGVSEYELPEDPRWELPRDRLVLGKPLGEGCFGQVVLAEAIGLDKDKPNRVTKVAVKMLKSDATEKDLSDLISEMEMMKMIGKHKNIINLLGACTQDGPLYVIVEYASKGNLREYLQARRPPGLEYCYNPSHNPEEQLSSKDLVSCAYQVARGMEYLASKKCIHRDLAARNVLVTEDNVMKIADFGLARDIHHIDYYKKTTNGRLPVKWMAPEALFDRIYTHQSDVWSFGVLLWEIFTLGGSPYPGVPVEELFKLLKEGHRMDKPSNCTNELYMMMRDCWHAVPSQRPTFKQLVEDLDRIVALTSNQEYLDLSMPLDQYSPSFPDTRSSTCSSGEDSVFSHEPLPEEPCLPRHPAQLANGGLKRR
Chain of human FGFR1c plus KLB (Q86Z14 whole entry): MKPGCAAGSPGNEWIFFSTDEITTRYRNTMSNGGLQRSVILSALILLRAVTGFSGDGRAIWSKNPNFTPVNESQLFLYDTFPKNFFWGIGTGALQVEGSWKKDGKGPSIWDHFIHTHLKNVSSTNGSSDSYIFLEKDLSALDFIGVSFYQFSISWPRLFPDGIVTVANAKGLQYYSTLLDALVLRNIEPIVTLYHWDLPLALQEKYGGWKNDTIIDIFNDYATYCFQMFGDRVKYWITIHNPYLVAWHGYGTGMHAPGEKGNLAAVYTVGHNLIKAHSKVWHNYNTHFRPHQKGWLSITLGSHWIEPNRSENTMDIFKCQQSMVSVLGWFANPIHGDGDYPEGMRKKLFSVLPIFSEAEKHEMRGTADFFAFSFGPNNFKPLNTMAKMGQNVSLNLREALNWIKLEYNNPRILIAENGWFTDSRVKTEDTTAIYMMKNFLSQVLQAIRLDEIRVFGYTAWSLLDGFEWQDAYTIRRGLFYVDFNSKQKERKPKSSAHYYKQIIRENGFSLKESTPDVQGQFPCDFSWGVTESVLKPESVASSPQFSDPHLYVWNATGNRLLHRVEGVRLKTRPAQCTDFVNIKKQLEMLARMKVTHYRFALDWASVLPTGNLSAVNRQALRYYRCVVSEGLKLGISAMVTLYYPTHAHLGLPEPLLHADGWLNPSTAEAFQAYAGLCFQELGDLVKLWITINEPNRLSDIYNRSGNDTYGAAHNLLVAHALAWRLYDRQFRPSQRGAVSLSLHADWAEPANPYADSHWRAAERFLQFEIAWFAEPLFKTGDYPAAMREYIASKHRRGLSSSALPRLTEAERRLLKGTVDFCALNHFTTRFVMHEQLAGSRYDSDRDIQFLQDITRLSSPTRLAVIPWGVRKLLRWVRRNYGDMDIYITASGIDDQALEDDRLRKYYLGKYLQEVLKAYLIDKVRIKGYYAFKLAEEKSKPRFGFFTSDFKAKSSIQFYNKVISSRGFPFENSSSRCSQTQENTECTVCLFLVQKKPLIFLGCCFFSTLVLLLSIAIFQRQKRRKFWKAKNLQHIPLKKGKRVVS
Protocol: FIG. 1B-1 to FIG. 1B-4) The FGF induced FGFR autophosphorylation was measured via a specific and highly sensitive In-Cell Western (ICW) in CHO cells stably overexpressing human FGFR1c together with human betaKlotho (KLB). In-Cell Western assay is an immunocytochemical assay usually performed in microplate format. Target-specific primary antibodies and infrared-labelled secondary antibodies are used to detect target proteins in fixed cells, and fluorescent signal from each well is quantified (e.g. the In-Cell Western assay from LI-COR Biosciences, USA).
The cellular efficacy of FGF-21 or FGF-21 fusion proteins was measured using a specific and highly sensitive In-Cell Western (ICW) assay. The ICW assay is an immunocytochemical assay usually performed in microplate format.
as §1, with “h.” for “h. Cells were serum starved with serum-free medium Ham's F-12 Nutrient Mix with GlutaMAX (Gibco, Darmstadt, Germany) for 3-4 h.”

- EC50 (MAP kinase ERK1/2): 0.135 nM
- EC50 (human FGFR1c plus KLB): 4.3 nM
B1: FGF21 wild type: Native Human FGF-21 without signal sequence (protein)
chain: HPIPDSSPLLQPGGQVRQRYLYTDDAQQTEAHLEIREDGTVGGAADQSPESLLQLKALKPGVIQILGVKTSRFLCQRPDGALYGSLHFDPEACSFRELLLEDGYNVYQSEAHGLPLHLPGNKSPHRDPAPRGPARFLPLPGLPPAPPEPPGILAPQPPDVGSSDPLSMVGPSQGRSPSYAS
modifications: FGF-21 mutein H29-S209
